Substitutions are numbered along the chain they refer to.
B1: TCR1-2 (TCR, V domains shown)
V domain 1: GAVVSQHPSRVICKSGTSVKIECRSLDFQATTMFWYRQFPKKSLMLMATSNEGSKATYEQGVEKDKFLINHASLTLSTLTVTSAHPEDSSFYICSARYGEVAFFGQGTRLTVVE
V domain 2: GENVEQHPSTLSVQEGDSAVIKCTYSDSASNYFPWYKQELGKGPQLIIDIRSNVGEKKDQRIAVTLNKTAKHFSLHITETQPEDSAVYFCAASRDNNDMRFGAGTRLTVKP
notes: also called TCR having feature (B)
B2: TCR2-1 (TCR, V domains shown)
V domain 1: EAQVTQNPRYLITVTGKKLTVTCSQNMNHEYMSWYRQDPGLGLRQIYYSMNVEVTDKGDVPEGYKVSRKEKRNFPLILESPSPNQTSLYFCASSPGLAGGVEQFFGPGTRLTVLE
V domain 2: RKEVEQDPGPFNVPEGATVAFNCTYSNSASQSFFWYRQDCRKEPKLLMSVYSSGNEDGRFTAQLNRASQYISLLIRDSKLSDSATYLCVVNIGFGNVLHCGSGTQVIVLP
notes: also called TCR having feature (C)
B3: TCR2-2 (TCR, V domains shown)
V domain 1: GAVVSQHPSRVICKSGTSVKIECRSLDFQATTMFWYRQFPKKSLMLMATSNEGSKATYEQGVEKDKFLINHASLTLSTLTVTSAHPEDSSFYICSARAGGDTFGSGTRLTVVE
V domain 2: AQSVTQLDSHVSVSEGTPVLLRCNYSSSYSPSLFWYVQHPNKGLQLLLKYTSAATLVKGINGFEAEFKKSETSFHLTKPSAHMSDAAEYFCVVSVNDYKLSFGAGTTVTVRA
notes: also called TCR having feature (D)
B4: TCR5-2 (TCR, V domains shown)
V domain 1: B3 V domain 1 with R97K, G99S, G100E, D101Q, T102Y, S105P, V112T
V domain 2: SQQGEEDPQALSIQEGENATMNCSYKTSINNLQWYRQNSGRGLVHLILIRSNEREKHSGRLRVTLDTSKKSSSLLITASRAADTASYFCAADNYGQNFVFGPGTRLSVLP
notes: also called TCR having feature (F)
B5: TCR5-3 (TCR, V domains shown)
V domain 1: GVTQTPKFRVLKTGQSMTLLCAQDMNHEYMYWYRQDPGMGLRLIHYSVGEGTTAKGEVPDGYNVSRLKKQNFLLGLESAAPSQTSVYFCASSYSRDRGWSEAFFGQGTRLTVVE
V domain 2: AQKVTQAQTEISVVEKEDVTLDCVYETRDTTYYLFWYKQPPSGELVFLIRRNSFDEQNEISGRYSWNFQKSTSSFNFTITASQVVDSAVYFCALNVMNRDDKIIFGKGTRLHILP
notes: also called TCR having feature (G)

molecular target: PE-labeled HLA-A*02:01/Taxp11-19 ([…]) tetramer (human; HTLV-1); assay: tetramer staining of TCR-transduced human PBMCs, flow cytometry

Row | Binder | percent TCR-positive (tetramer-positive) CD4-positive cells among transfected cells [%] | percent TCR-positive (tetramer-positive) CD8-positive cells among transfected cells [%]
1 | B1 | ≥ 5 | ≥ 10
2 | B2 | ≥ 5 | ≥ 10
3 | B3 | ≥ 5 | ≥ 10
4 | B4 | ≥ 5 | ≥ 10
5 | B5 | ≥ 5 | ≥ 10
